The target of series [1] is T1, hTERB1-MYB (Homo sapiens, UniProt Q8NA31 666-719).
T1 sequence: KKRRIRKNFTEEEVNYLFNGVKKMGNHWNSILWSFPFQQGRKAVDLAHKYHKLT
Briefly: EMSA; 150 nM probe; 50 mM Tris-HCl pH 8.0, 6.5% glycerol, 20 mM NaCl, 5 mM DTT, 150 nM probe, 10 ul, 30 min on ice; 4-20% TBE native gel. The following applies: protein: recombinant; tags: none after Ulp1 cleavage of His-Smt3; label: 32P (T4 PNK).

Series [2] addresses T2, mTERB1-MYB (Mus musculus, UniProt Q8C0V1 707-760).
T2 sequence: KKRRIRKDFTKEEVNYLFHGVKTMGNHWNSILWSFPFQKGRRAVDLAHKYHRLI
The description is as above. The following applies: protein: recombinant; tags: 6xHis (not cleaved); label: 32P (T4 PNK).

The next series concerns the target hTRF2-MYB (Homo sapiens, UniProt Q15554 488-542). The description is as above. The following applies: protein: recombinant; tags: none after Ulp1 cleavage of 10xHis-Smt3; label: 32P (T4 PNK).
For series [3], the target named is T1, hTERB1-MYB. Kind of series: EMSA; 2-8 uM protein, 150 nM probe; 50 mM Tris-HCl pH 8.0, 6.5% glycerol, 20 mM NaCl, 5 mM DTT, 150 nM probe, 10 ul, 30 min on ice; 4-20% TBE native gel. The following applies: protein: recombinant; tags: none after Ulp1 cleavage of His-Smt3; label: 32P (T4 PNK).
In series [4] the target is T2, mTERB1-MYB. The series is described as above. The following applies: protein: recombinant; tags: 6xHis (not cleaved); label: 32P (T4 PNK).

Sequence of hTRF2-MYB (Q15554 488-542): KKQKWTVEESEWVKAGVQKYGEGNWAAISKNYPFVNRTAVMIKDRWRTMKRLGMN

B1: dsDNA_telo_8-mer (TTAGGG)8 (dsDNA)
DNA 1: TTAGGGTTAGGGTTAGGGTTAGGGTTAGGGTTAGGGTTAGGGTTAGGG
DNA 2: CCCTAACCCTAACCCTAACCCTAACCCTAACCCTAACCCTAACCCTAA
Take B1: the binding result is recorded as “no binding” with hTERB1-MYB [1], “no binding” in the series with mTERB1-MYB [2] and “binds” with hTRF2-MYB.

B2: dsDNA_scrambled_8-mer (dsDNA)
DNA 1: GACAGCGATGAGAACTAATTCGTGTGCTTGCTGACTGATATCGTGACT
DNA 2: AGTCACGATATCAGTCAGCAAGCACACGAATTAGTTCTCATCGCTGTC
For B2, the binding result with hTERB1-MYB [3] and with mTERB1-MYB [4] was “no binding” throughout.

The values above are taken from article PMC8867601, “The TERB1 MYB domain suppresses telomere erosion in meiotic prophase I”.
